Measured values from PMC9860152.

Experiments:
REST-FL = molecular target: T1, REST-FL (human, UniProt Q13127 1-1097); test: fluorescence anisotropy
T1 sequence: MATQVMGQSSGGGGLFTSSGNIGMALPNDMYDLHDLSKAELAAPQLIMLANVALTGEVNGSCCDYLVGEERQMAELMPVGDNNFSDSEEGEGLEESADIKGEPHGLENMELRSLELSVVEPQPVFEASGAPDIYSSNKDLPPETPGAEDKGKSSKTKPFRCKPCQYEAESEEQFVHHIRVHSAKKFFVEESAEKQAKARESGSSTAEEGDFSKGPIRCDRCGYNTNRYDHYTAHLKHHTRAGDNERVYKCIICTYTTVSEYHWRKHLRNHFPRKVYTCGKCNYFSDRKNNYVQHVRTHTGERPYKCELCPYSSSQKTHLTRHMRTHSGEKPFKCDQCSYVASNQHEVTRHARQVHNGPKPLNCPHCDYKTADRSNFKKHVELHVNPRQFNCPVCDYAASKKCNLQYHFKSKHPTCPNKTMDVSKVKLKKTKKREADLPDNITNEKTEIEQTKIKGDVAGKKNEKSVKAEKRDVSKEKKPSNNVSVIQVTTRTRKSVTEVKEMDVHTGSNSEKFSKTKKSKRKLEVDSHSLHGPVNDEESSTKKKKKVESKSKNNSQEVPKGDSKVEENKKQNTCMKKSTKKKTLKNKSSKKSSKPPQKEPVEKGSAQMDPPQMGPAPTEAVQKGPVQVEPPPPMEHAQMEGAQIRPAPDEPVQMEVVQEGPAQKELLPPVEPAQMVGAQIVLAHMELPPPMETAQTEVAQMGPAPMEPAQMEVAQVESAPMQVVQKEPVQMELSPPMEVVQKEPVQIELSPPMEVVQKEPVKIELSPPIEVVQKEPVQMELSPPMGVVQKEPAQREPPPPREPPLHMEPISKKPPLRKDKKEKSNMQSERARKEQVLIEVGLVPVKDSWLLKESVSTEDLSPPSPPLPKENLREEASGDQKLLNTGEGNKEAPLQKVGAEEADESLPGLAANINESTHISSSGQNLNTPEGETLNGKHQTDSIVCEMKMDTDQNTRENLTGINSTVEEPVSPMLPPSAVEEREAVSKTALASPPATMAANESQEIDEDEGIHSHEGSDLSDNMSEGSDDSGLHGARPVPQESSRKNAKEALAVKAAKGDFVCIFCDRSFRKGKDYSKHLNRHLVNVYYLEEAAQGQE

REST-N62 (REST4-S3) = molecular target: T2, REST-N62 (REST4-S3) (human, UniProt A0A087X1C2 1-340); test: fluorescence anisotropy
T2 sequence: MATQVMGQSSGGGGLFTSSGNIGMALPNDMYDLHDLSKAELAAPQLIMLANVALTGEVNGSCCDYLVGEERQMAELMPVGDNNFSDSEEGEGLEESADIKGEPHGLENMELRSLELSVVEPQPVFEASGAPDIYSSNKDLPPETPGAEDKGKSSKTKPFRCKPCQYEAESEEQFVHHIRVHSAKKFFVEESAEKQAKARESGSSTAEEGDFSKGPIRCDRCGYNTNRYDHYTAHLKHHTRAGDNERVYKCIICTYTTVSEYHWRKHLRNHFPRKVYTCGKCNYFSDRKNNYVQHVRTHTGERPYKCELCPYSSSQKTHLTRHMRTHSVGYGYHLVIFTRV

B1: NRSE (RE1) 21 bp duplex (dsDNA)
DNA 1: TTCAGCACCATGGACAGCGCC
DNA 2: GGCGCTGTCCATGGTGCTGAA
- Kd (REST-FL): 5.7 ± 0.6 nM
- binding result (REST-N62 (REST4-S3)): no binding
